Columns and labels:
ES cells [1] = assay: Serum-free medium and transient growth factor stimulation: numbers of undifferentiated ES cells; type: cell-based; conditions: factor continuously present in LIF and BMP4 medium
Method: ES cells were grown initally in a medium comprising DMEM F12 plus neurobasal medium (ratio 1:1) supplemented with N2-B27. ES cells were plated at very low density, about 1000-10,000 cells on a 3.5 cm diameter plate and grown on in the same medium supplemented with LIF and BMP4. […]
We observed enhanced numbers of undifferentiated ES cells, indicating increased proliferation or increased ES cell survival, or both.
After more (5-6) passages the rank order of efficacy changed to:—

ES cells [2] = assay: Self-renewal of pluripotent cells with agonists of a receptor of the TGF-β superfamily or FGF receptor inhibitor; type: cell-based
ES cells [3] = assay: Extended passaging of ES cells in serum free, feeder cell free defined culture media; type: cell-based, murine; conditions: after multiple passages in serum free medium
Excerpt: When using the LIF and BMP4-containing medium of a specific embodiment of the present invention extended passaging of ES cells is possible. In one example, murine ES cells have been maintained for more than 20 passages over a three month period. Cells were passaged every 2-4 days depending on the plating cell density, though occasionally cells were passaged 7-10 days after plating at low density.
In an alternative embodiment, it is an option not to remove the FGF receptor inhibitor. […] ES-cells can be grown in culture for at least 20 passages in. N2B27 medium in the presence of LIF and an FGF inhibitor, in the absence of BMP. If the FGF receptor inhibitor is not removed from the medium, it is preferred that it is a specific inhibitor and has little or no activity on other receptors.
N2B27 (1:1 mixture of DMEM/F12 medium supplemented with modified N2 (25 μg/ml insulin, 100 μg/ml apo-transferrin, 6 ng/ml progesterone, 16 μg/ml putrescine, 30 nM sodium selenite and 50 μg/ml bovine serum albumin) and Neurobasal medium supplemented with B27)
ES cells were cultured in 0.1% gelatin coated dishes in N2B27 medium supplemented with LIF (100 U/ml) and BMP4 (10 ng/ml). For passaging, a standard protein-free cell dissociation buffer was used to dissociate cells.
The plating density of the cells was approximately 1-5×10^4/cm^2. […]

Row | Molecule | effect when continuously present (ES cells [1]) | result as agonist of a receptor of the TGF-β superfamily for self-renewal (ES cells [2]) | differentiation of ES cells in the presence of BMP4 but absence of LIF (ES cells [3])
1 | TGFβ: growth factor added to the culture medium at 1-2 ng/ml | progressive differentiation of the ES cells | – | –
2 | activin A: growth factor added to the culture medium at 5 ng/ml (protein, UniProt P08476 311-426, looked up) Inhibin beta A chain: GLECDGKVNICCKKQFFVSFKDIGWNDWIIAPSGYHANYCEGECPSHIAGTSGSSLSFHSTVINHYRMRGHSPFANLKSCCVPTKLRPMSMLYYDDGQNIIKKDIQNMIVEECGCS | progressive differentiation of the ES cells | – | –
3 | BMP4: bone morphogenetic protein, agonist of a receptor of the TGF-β superfamily (protein, UniProt P12644 293-408, looked up) Bone morphogenetic protein 4: SPKHHSQRARKKNKNCRRHSLYVDFSDVGWNDWIVAPPGYQAFYCHGDCPFPLADHLNSTNHAIVQTLVNSVNSSIPKACCVPTELSAISMLYLDEYDKVVLKNYQEMVVEGCGCR | – | Good results | differentiated into large flat cells of characteristic morphology

From patent publication US20050221478A1, “Control of es cell self renewal and lineage specification, and medium therefor” (University of Edinburgh, priority 2002, published 2005)
